The values that follow come from patent publication US20210269521A1 (L AND L BIOPHARMA, published 2021).

Usually EC50 stands for the concentration needed to bring the measured effect to its halfway point. As usually defined, the Kd is a measure of binding affinity in units of concentration. Read a low Kd as a tighter complex. The term koff denotes the first-order rate constant of dissociation. By kon is commonly meant the second-order rate constant of association. For orientation: EC50 (read off the curve) means the concentration at which the effect is half-maximal. Read a high EC50 (read off the curve) as a need for much substance. For orientation: IC50 means the concentration needed to halve the response being measured. A high value points to lower potency.

The target in test [1] is T1, human PD-1 extracellular domain protein expressed in Example 1 (tag not stated) (human, UniProt Q15116 25-170).
T1 construct: extracellular domain; also called PD-1 protein; not shown: human IgG1 Fc or his tag
In words: ELISA, PD-1 coated. How it is done: (§1) PD-1 expressed in Example 1 was diluted to a concentration of 1 μg/ml with PBS buffer, pH 7.4, and added to a 96-well microplate (Corning, CLS3590-100EA) at 50 μl per well, thereby incubating in an incubator at 37° C. for 2 hours. After discarding the liquid, a blocking solution of 5% skimmed milk (Shanghai Shenggong Biological Engineering Co., Ltd., A600669-0250) diluted with PBS was added at 200 μl per well, followed by incubating at 37° C. for 3 hours or 4° C. overnight (16-18 hours)) for blocking. Subsequently, the blocking solution was discarded, and the microplate was washed 5 times with PBST buffer (pH 7.4 PBS containing 0.05% tween-20). […] Subsequently, the microplate was washed 5 times with PBST, then 50 μl/well of 1:2500 diluted HRP-labeled secondary antibody (Jackson Immuno Research, 115-035-003) was added, thereby incubating at 37° C. for 1 hour. After washing the microplate 5 times with PBST, 50 μl/well TMB chromogenic substrate (KPL, 52-00-03) was added, then incubated at room temperature for 5-10 min. Finally, 50 μl/well of 1M H₂SO₄ was added to stop the reaction. […] Go microplate reader (ThermoFisher, 51119200) was used to read the absorption value at 450 nm and the EC50 based on the OD value was calculated.
The TIM-3 and PD-1 bispecific antibodies of the present invention were tested for their affinity for TIM-3 and PD-1 using the methods in Example 3 and Example 5, respectively.
For orientation: ELISA stands for enzyme-linked immunosorbent assay.

Test [2] concerns the target T2, human TIM-3 extracellular domain-human IgG1 Fc fusion protein (human, UniProt Q8TDQ0 22-199).
T2 construct: Made in house or bought (ACROBiosystems TM3-H5258); also called TIM-3-hFc; not shown: human IgG1 Fc
As to the kind of experiment: ELISA.

Test [3] concerns the target T2, human TIM-3 extracellular domain-human …. As to the kind of experiment: ELISA. The source holds these as a separate data set.
The target of test [4] is T3, human TIM-3 extracellular domain-his tag protein (human, UniProt Q8TDQ0 22-199).
T3 construct: Made in house or bought (ACROBiosystems TM3-H5229); also called TIM-3-his; Human Tim3-his; not shown: his tag
In words: ELISA, human TIM-3-his.

The target of test [5] is T2, human TIM-3 extracellular domain-human …. In words: ELISA. On the procedure:
Goat-anti-hFc (Jackson, 109-005-008) was diluted to a concentration of 1 μg/ml with PBS buffer (pH 7.4) and added to a 96-well microplate (Corning, CLS3590-100EA) at a volume of 50 μl/well, then incubated in an incubator at 37° C. for 2 hours (Or the antigen TIM-3 was directly used to coat the microplate with a concentration of 0.5 μg/ml, and then the antibody to be tested was directly added). After discarding the liquid, a blocking solution of 5% skimmed milk (skimmed milk powder purchased from Bright) diluted with PBS was added at 200 μl per well, and the microplate was incubated for 2.5 hours at 37° C. or overnight (16-18 hours) at 4° C. for blocking. The blocking solution was discarded, and the microplate was washed 5 times with PBST buffer (PBS with pH 7.4 containing 0.05% tween-20), then 50 μl/well of 0.5 μg/ml TIM-3-hFc (Example 1) was added and incubated for 2 hours in a 37° C. incubator. After incubation, the microplate was washed 6 times with PB ST. 50 μl/well of supernatant (containing testing antibody) or different concentrations of the antibody to be tested was added, and the microplate was incubated at 37° C. for 2 hours and washed 5 times with PBST. 50 μl/well of 1:2500 diluted HRP-labeled secondary antibody (Jackson Immuno Research, 115-035-003) was added to the microplate, incubating at 37° C. for 1 hour. After washing the microplate 5 times with PBST, 50 μl/well TMB chromogenic substrate (KPL, 52-00-03) was added to the microplate, followed by incubating at room temperature for 10-15 min.
(§2) The above-mentioned TIM-3 and PD-1 bispecific antibodies of the present invention were optimized and designed using the methods of Example 2 and Example 5, and their affinity for TIM-3 and PD-1 were tested respectively.
The source holds these as a separate data set.

Test [6] addresses T3, human TIM-3 extracellular domain-his …. In words: SPR Biacore, antibody captured on Protein A, TIM-3-his in flow. On the procedure:
First, Protein A (Thermo Pierce, Cat #21181) was conjugated to the biosensing chip CMS (Cat. #BR-1005-30, GE), and the chip was activated with the newly prepared 50 mM NHS (N-hydroxysuccinimide) and 200 mM EDC [1-ethyl-3-(3-dimethylaminopropyl) carbodiimide hydrochloride], then 10 μg/ml Protein A prepared with 10 mM NaAC (pH 4.0) was injected. […] The flow rate was 30 μl/min, the binding time was 180 seconds and the dissociation time is 300 seconds. Subsequently, the chip was washed for 30s with 10 mM Glycine-HCl (pH 1.5) at 30 μl/min. The data were fitted with a 1:1 Langmuir model using the software of Biacore T200 evaluation version 3.0 (GE), and the affinity value KD was obtained.
In general terms: SPR reads the build-up and loss of mass on a sensor chip optically.

Test [7] addresses T2, human TIM-3 extracellular domain-human …. As to the kind of experiment: ELISA on human TIM-3, OD450 against Log[nM] of antibody.
Test [8] addresses T1, human PD-1 extracellular domain protein …. In words: ELISA, PD-1 coated. How it is done:
as §1, §2
This is another data set of the same source.

Test [9] has the same target. In words: blocking ELISA, PD-1 coated, competitor biotin-labeled PD-L1.
Test [10] has as its target T4, Marmoset TIM-3 (Marmoset, UniProt F7I881 21-290).
T4 sequence: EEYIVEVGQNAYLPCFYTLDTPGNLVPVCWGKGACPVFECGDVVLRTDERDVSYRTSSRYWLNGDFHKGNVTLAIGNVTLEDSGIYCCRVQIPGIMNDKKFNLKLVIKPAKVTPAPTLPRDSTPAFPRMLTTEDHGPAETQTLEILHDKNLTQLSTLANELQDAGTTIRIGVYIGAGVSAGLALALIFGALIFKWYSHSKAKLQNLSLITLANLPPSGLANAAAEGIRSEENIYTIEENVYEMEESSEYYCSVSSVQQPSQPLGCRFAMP
As to the kind of experiment: ELISA.

Numbering of substitutions follows the chain as printed. Names may count otherwise. Read-outs that look alike come from different tables or passages of the source.

B1: bispecific antibody LB129 (bispecific antibody, human IgG4 S228P, kappa)
light: DIQMTQSPSSLSASVGDRVTITCRASENIYSYLTWYQQKPGKAPKLLIYNAKTLAEGVPSRFSGSGSGTDFTLTISSLQPEDFATYYCQQHYGTPLTFGQGTKLEIKRTVAAPSVFIFPPEIVLTQSPATLSLSPGERATISCRASKGVSTSGYSYLHWYQQKPGQAPRLLIYLASYLESGVPARFSGSGSGTDFTLTISSLEPEDFATYYCQHSRELPLTFGTGTKVEIKRTVAAPSVFIFPPSDEQLKSGTASVVCLLNNFYPREAKVQWKVDNALQSGNSQESVTEQDSKDSTYSLSSTLTLSKADYEKHKVYACEVTHQGLSSPVTKSFNRGEC
heavy: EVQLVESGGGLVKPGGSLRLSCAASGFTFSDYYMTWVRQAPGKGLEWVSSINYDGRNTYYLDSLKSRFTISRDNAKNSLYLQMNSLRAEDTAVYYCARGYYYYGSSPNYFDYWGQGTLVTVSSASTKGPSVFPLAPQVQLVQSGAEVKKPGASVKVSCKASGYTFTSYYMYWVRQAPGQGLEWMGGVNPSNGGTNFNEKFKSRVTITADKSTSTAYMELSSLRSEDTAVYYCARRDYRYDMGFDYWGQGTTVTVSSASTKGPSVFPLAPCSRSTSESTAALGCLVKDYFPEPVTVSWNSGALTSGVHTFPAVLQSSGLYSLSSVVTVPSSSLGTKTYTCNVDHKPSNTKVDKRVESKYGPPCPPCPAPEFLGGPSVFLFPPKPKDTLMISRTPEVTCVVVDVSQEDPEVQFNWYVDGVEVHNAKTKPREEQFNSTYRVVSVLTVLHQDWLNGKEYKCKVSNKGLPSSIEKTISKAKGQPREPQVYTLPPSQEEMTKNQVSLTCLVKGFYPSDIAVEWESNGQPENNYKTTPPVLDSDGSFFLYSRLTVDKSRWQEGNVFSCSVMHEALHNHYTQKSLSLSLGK
Regarding B1, the EC50 was 0.508 nM in [1] and 0.558 nM in test [2].

B2: humanized anti-TIM-3 antibody ab6 (antibody, IgG4, V domains shown)
VH: EVQLVESGGGLVKPGGSLRLSCAASGFTFSDYYMAWVRQAPGKGLEWVANINYDGSNTYYLDSLKSRFTISRDNAKNSLYLQMNSLRAEDTAVYYCARGLYYYGGNYFAYWGQGTLVTVSS
VL: DIQMTQSPSSLSASVGDRVTITCHASQGISSNIGWLQQKPGKAFKGLIYQGSNLEDGVPSRFSGSGSGADYTLTISSLQPEDFATYYCVQFAQFPPTFGQGTKLEIK
notes: also called ab6 intact antibody
B2: the EC50 in [3] was 0.084 nM; in test [2] it was 0.095 nM; in test [4], 0.11 nM; in [5], 0.087 nM. In test [6], this molecule registered a Kd of 2.83 nM. The molecule also yielded a koff in test [6] of 0.00235 s⁻¹. The kon in [6] worked out at 834000 M⁻¹ s⁻¹.

B3: humanized anti-TIM-3 antibody ab32 (antibody, IgG4, V domains shown)
VH: EVQLVESGGGLVKPGGSLRLSCAASGFTFSDYYMTWVRQAPGKGLEWVSSINYDGRNTYYLDSLKSRFTISRDNAKNSLYLQMNSLRAEDTAVYYCARGYYYYGSSPNYFDYWGQGTLVTVSS
VL: DIQMTQSPSSLSASVGDRVTITCRASENIYSYLTWYQQKPGKAPKLLIYNAKTLAEGVPSRFSGSGSGTDFTLTISSLQPEDFATYYCQQHYGTPLTFGQGTKLEIK
notes: also called ab32 intact antibody
Take B3: a half-maximal response in test [3] (EC50) required 0.09 nM. In test [5], this molecule registered an EC50 of 0.036 nM. In test [6], binding was characterised by a dissociation constant (Kd) of 1.18 nM, the koff turned out to be 0.000296 s⁻¹ and the kon was determined as 251000 M⁻¹ s⁻¹. In addition, in test [7], the “EC50 (read off the curve)” value is about 0.2 nM.

B4: bispecific antibody LB135 (bispecific antibody, human IgG4 S228P, kappa)
light: EIVLTQSPATLSLSPGERATISCRASKGVSTSGYSYLHWYQQKPGQAPRLLIYLASYLESGVPARFSGSGSGTDFTLTISSLEPEDFATYYCQHSRELPLTFGTGTKVEIKRTVAAPSVFIFPPSDEQLKSGTASVVCLLNNFYPREAKVQWKVDNALQSGNSQESVTEQDSKDSTYSLSSTLTLSKADYEKHKVYACEVTHQGLSSPVTKSFNRGEC
heavy: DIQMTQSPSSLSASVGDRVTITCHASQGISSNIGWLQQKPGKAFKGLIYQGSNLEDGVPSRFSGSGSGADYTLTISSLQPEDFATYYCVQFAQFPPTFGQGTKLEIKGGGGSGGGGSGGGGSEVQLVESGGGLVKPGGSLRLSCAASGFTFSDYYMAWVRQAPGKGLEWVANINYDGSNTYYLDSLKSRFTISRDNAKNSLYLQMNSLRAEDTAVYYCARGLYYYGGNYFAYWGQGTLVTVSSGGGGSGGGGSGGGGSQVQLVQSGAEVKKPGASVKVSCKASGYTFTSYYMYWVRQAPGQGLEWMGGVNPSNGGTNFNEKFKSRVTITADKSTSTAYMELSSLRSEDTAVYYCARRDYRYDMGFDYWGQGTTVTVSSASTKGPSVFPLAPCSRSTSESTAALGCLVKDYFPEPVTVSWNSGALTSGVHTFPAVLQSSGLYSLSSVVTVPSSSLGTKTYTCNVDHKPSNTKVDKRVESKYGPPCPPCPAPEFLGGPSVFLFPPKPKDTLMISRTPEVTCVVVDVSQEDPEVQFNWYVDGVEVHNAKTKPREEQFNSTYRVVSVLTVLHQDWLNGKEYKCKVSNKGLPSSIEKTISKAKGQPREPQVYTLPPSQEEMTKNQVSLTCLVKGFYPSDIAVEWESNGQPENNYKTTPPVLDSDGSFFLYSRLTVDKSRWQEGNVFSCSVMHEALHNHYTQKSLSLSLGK
notes: ab6VL-(G4S)3-ab6VH-(G4S)3-Ba08VH-hIgG4 with Ba08VL-κ
Regarding B4, the figures for the EC50 in test [8] and in [5] were 0.082 nM and 0.145 nM, respectively. In test [9], this molecule gave an IC50 of 1.49 nM.

B5: bispecific antibody LB143 (bispecific antibody, human IgG4 S228P, kappa)
light: B4 light with I21L, T89V, E97D, T104G
heavy: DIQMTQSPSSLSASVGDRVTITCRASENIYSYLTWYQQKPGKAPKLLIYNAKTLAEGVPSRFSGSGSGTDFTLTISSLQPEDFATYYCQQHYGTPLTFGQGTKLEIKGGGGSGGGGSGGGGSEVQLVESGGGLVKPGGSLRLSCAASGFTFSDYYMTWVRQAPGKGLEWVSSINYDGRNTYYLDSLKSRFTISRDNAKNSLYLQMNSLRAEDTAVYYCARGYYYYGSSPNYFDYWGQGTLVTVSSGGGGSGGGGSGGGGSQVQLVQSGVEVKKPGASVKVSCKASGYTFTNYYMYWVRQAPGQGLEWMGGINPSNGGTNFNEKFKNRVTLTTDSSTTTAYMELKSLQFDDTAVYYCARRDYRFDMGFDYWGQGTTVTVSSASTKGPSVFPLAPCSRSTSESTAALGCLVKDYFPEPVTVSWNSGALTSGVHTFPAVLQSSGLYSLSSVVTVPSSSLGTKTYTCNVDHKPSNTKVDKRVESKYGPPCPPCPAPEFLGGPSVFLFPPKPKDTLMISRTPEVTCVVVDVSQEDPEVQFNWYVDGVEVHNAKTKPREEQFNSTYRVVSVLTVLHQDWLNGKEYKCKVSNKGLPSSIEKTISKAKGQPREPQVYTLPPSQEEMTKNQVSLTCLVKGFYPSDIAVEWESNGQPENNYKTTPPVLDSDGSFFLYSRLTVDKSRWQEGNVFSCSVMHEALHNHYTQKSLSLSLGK
notes: ab32VL-(G4S)3-ab32VH-(G4S)3-PemVH-hIgG4 with PemVL-κ
Turning to B5, the EC50 came to 0.064 nM in [8] and 0.14 nM in test [5]. This molecule also displayed an IC50 in test [9] of 1.88 nM.

B6: bispecific antibody LB136 (bispecific antibody, human IgG4 S228P, kappa)
light: B4 light
heavy: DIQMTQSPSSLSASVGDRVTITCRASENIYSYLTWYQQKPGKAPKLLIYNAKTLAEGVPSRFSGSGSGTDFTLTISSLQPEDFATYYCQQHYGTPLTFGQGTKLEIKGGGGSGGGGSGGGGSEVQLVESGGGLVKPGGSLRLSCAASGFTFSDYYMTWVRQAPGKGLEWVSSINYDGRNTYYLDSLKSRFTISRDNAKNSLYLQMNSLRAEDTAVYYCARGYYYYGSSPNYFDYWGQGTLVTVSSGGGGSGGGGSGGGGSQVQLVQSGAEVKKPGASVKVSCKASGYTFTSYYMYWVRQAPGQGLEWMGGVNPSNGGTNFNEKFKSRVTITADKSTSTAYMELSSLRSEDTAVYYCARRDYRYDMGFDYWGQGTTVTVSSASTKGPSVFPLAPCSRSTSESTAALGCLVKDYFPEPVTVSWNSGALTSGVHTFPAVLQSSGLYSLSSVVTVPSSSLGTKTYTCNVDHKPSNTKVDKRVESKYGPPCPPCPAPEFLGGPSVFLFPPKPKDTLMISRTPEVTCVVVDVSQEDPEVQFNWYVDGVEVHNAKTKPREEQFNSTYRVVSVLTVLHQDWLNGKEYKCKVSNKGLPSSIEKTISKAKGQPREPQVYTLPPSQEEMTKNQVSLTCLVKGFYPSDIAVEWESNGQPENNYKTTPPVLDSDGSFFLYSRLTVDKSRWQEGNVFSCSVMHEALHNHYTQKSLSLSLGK
notes: ab32VL-(G4S)3-ab32VH-(G4S)3-Ba08VH-hIgG4 with Ba08VL-κ
For the molecule B6, the results for the EC50 in test [8] and in test [5] were 0.065 nM and 0.178 nM, respectively. Moreover, in [9], the IC50 was 1 nM.

B7: Tim3-0028 (antibody of US20170114135A1) (antibody, V domains shown)
VH: EVQLQQSVAELVRPGASVKLSCTASGFNIKTTYMHWVKQRPEQGLEWIGRIDPADDNTKYAPKFQGKATITADTSSNTAYLQLSSLTSEDAAIYYCVRDFGYVAWFAYWGQGTLVTFSA
VL: NIVMTPTPKFLPVSSGDRVTMTCRASQSVDNYVAWYQQKPGQSPKLLIYYASNRYIGVPDRFTGSGSGTDFTFTISSVQVEDLAVYFCQQHYSSPYTFGSGTKLEIK
Molecule B7 gave an EC50 in test [10] of 36.2 nM.
